This passage reports stoichiometry N results from PMC12751052.

The assay has as its target AcrIII-2 (second anti-CRISPR of type III systems), viral SAVED protein of Thermocrinis Great Boiling Spring virus (Thermocrinis Great Boiling Spring virus). Kind of assay: crystal structure; apo AcrIII-2, X-ray, data to 1.79 Å; crystals from 1.2 M sodium dihydrogen phosphate, 0.8 M dipotassium hydrogen phosphate, 0.2 M lithium sulphate, 0.1 M CAPS pH 10, 293 K.

One may read the stoichiometry N as the number of molecules, sites or subunits per partner or assembly. Substance “AcrIII-2 (second anti-CRISPR of type III systems), viral SAVED protein of Thermocrinis Great Boiling Spring virus (natural protein)” yielded a stoichiometry N of 2.
